Assay results from patent publication US20250002605A1 (WUHAN YZY BIOPHARMA, published 2025).

Experiments:
[1] = target: T1, human EpCAM antigen (SB, Cat: 10694-H08H) (human, UniProt P16422 24-265); assay: SPR (Biacore T200), antigen amine-coupled on CM5, antibody as analyte, 1:1 fit; D14 sample after 14 days at 40 C
T1 construct: Bought antigen immobilised on a CM5 chip
T1 sequence (looked up): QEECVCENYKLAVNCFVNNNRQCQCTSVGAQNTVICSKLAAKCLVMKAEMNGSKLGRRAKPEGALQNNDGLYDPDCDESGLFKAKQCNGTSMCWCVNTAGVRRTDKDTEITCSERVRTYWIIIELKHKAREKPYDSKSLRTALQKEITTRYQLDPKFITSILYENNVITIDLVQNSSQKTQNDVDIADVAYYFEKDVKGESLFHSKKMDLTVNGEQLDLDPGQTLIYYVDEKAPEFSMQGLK

[2] = target: T1, human EpCAM antigen (SB, Cat: …); assay: SPR (Biacore T200), antigen amine-coupled on CM5, antibody as analyte, 1:1 fit; D0 sample
[3] = target: T2, human EpCAM on the cell surface (human, UniProt P16422 24-314); assay: cell-based or functional assay
T2 sequence (looked up): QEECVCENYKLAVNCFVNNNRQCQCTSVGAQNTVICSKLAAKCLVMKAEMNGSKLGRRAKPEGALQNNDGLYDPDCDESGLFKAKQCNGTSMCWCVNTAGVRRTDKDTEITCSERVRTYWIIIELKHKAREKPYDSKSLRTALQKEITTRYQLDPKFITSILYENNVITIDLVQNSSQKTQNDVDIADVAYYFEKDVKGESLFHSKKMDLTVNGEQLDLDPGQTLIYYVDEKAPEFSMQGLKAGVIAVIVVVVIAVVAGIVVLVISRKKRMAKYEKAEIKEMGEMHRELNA

[4] = target: CD3 on Jurkat cells; assay: cell-based or functional assay
[5] = target: T2, human EpCAM on the cell surface; assay: cell-based or functional assay; remark: listed apart in the source
[6] = target: CD3 on Jurkat cells; assay: cell-based or functional assay; remark: listed apart in the source
[7] = target: T2, human EpCAM on the cell surface; assay: flow cytometry (FACS) on HCT116 cells, PE anti-human IgG Fc detection
[8] = target: T3, human CD3 antigen (SB, Cat: CT038-H2508H) (human, UniProt P07766 23-126; P04234 22-105); assay: SPR (Biacore T200), CD3 antigen amine-coupled on CM5, antibody as analyte, 1:1 fit
[9] = target: T3, human CD3 antigen (SB, Cat: …); assay: SPR (Biacore T200), antigen amine-coupled on CM5, antibody as analyte, 1:1 fit; D14 sample after 14 days at 40 C
[10] = target: T3, human CD3 antigen (SB, Cat: …); assay: SPR (Biacore T200), antigen amine-coupled on CM5, antibody as analyte, 1:1 fit; D0 sample

B1: M701A (bispecific antibody, human IgG1, kappa)
light: ELVMTQSPSSLTVTAGEKVTMSCKSSQSLLNSGNQKNYLTWYQQKPGQPPKLLIYWASTRESGVPDRFTGSGSGTDFTLTISSVQAEDLAVYYCQNDYSYPLTFGAGTKLEIKRTVAAPSVFIFPPSDEQLKSGTASVVCLLNNFYPREAKVQWKVDNALQSGNSQESVTEQDSKDSTYSLSSTLTLSKADYEKHKVYACEVTHQGLSSPVTKSFNRGEC
heavy: EVQLLEQSGAELVRPGTSVKISCKASGYAFTNYWLGWVKQRPGHGLEWIGDIFPGSGNIHYNEKFKGKATLTADKSSSTAYMQLSSLTFEDSAVYFCARLRNWDEPMDYWGQGTTVTVSSASTKGPSVFPLAPSSKSTSGGTAALGCLVKDYFPEPVTVSWNSGALTSGVHTFPAVLQSSGLYSLSSVVTVPSSSLGTQTYICNVNHKPSNTKVDKKVEPKSCDKTHTCPPCPAPELLGGPSVFLFPPKPKDTLMISRTPEVTCVVVDVSHEDPEVKFNWYVDGVEVHNAKTKPREEQYNSTYRVVSVLTVLHQDWLNGKEYKCKVSNKALPAPIEKTISKAKGQPREPQVYTLPPSRDELTKNQVSLWCLVKGFYPSDIAVEWESNGQPENNYDTTPPVLDSDGSFFLYSDLTVDKSRWQQGNVFSCSVMHEALHNHYTQKSLSLSPGK
chain: not shown
notes: YBODY format; also called bispecific antibody M701A
In the case of B1, the Kd [1] is reported as 17.3 nM, the Kd [2] is reported as 17.1 nM and the “EC50 (read off the curve), cell bridging of HCT116 and Jurkat [panel C]” value [3] is reported as about 10 ng/mL. For the same binder, the “EC50 (read off the curve), cell bridging of HCT116 and Jurkat [panel C]” value [4] was about 10 ng/mL, the “cell bridging of HCT116 and Jurkat cells (CFSE/PKH26 double-positive cells, flow cytometry)” value [5] was ~40 % of the total PKH26-positive cells and the “cell bridging of HCT116 and Jurkat cells (CFSE/PKH26 double-positive cells, flow cytometry)” value [6] was ~40 % of the total PKH26-positive cells. For the same binder, the EC50 [7] was 3.56 nM.

B2: M701K (bispecific antibody, human IgG1, kappa)
light: B1 light
heavy: EVQLLEQSGAELVRPGTSVKISCKASGYAFTNYWLGWVKQRPGHGLEWIGDIFPGSGNIHYNEKFKGKATLTADKSSSTAYMQLSSLTFEDSAVYFCARLRNWDEPMDYWGQGTTVTVSSASTKGPSVFPLAPSSKSTSGGTAALGCLVKDYFPEPVTVSWNSGALTSGVHTFPAVLQSSGLYSLSSVVTVPSSSLGTQTYICNVNHKPSNTKVDKKVEPKSCDKTHTCPPCPAPPVAGPSVFLFPPKPKDTLMISRTPEVTCVVVDVSHEAPEVQFNWYVDGVEVHNAKTKPREEQFNSTFRVVSVLTVVHQDWLNGKEYKCKVSNKGLPAPIEKTISKTKGQPREPQVYTLPPCRDELTKNQVSLWCLVKGFYPSDIAVEWESNGQPENNYKTTPPVLDSDGSFFLYSKLTVDKSRWQQGNVFSCSVMHEALHNHYTQKSLSLSPGK
chain: QVQLVESGGGVVQPGRSLRLSCAASGFTFSTYAMNWVRQAPGKGLEWVARIRSKYNNYATYYADSVKDRFTISRDDSKNTLYLQMNSLRAEDTAVYYCARHGNFGNSYVSWFAYWGQGTLVTVSSGGGGSGGGGSGGGGSQTVVTQEPSLTVSPGGTVTLTCRSSTGAVTTSNYANWVQQKPGQAPRGLIGGTNKRAPGVPARFSGSLLGGKAALTLSGVQPEDEAEYYCALWYSNLWVFGGGTKVEIKGAAAEPKSCDKTHTCPPCPAPPVAGPSVFLFPPKPKDTLMISRTPEVTCVVVDVSHEAPEVQFNWYVDGVEVHNAKTKPREEQFNSTFRVVSVLTVVHQDWLNGKEYKCKVSNKGLPAPIEKTISKTKGQPREPQVCTLPPSRDELTKNQVSLSCAVKGFYPSDIAVEWESNGQPENNYKTTPPVLDSDGSFFLVSKLTVDKSRWQQGNVFSCSVMHEALHNHYTQKSLSLSPGK
notes: YBODY format; also called bispecific antibody M701K
With B2 the Kd [8] was 28.8 nM, the Kd [9] was 30.6 nM and the Kd [1] was 22.6 nM. For the same binder, the Kd [10] was 28.8 nM, the Kd [2] was 21.1 nM and the EC50 [7] was 5.65 nM.
